Target: T1, CHRD_VWC2 (Mus musculus (Mouse), UniProt Q9Z0E2)
T1 chain: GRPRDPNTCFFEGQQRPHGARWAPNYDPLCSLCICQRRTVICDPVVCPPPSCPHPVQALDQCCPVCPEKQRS
Test: SPR, chordin VWC immobilised

- Kd: 145 nM
B1: CV2 (protein)
chain: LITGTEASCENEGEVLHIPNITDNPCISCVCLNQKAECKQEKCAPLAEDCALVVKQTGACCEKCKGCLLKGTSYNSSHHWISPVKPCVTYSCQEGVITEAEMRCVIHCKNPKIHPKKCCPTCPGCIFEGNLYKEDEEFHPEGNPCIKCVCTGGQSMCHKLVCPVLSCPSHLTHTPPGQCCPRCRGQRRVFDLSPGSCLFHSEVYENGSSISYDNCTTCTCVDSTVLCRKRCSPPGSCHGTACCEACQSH
